Experimental data as given in patent publication US20230050148A1, “TGF-BETA INHIBITORS AND USE THEREOF” (SCHOLAR ROCK, INC., priority 2020, published 2023).
Read-outs that look alike come from different tables or passages of the source.

Experiments:
[1] = mouse, in vivo, iv
Method: Pharmacokinetics studies were conducted in female C57BL/6 mice, SD rats, and cynomolgus monkeys. […] A non-GLP single-dose PK study was performed in C57BL/6 mice (10-11 weeks) at Gateway Pharmacology Laboratories in Chesterfield, Mo. Additional pharmacokinetic and toxicology studies were conducted in naive young adult Sprague Dawley rats (7-10 weeks) and cynomolgus monkeys (2-4 years).
The lower limit of quantitation (LLOQ) for the non-GLP assays were 125, 125, and 250 ng/mL for the mouse, rat, and cynomolgus monkey, respectively; and 75 ng/mL for the optimized and validated GLP assays (rat and monkey). The absorbance-versus concentration relationship was regressed using a 4-parameter logistic curve fit (with a weighting factor of 1/Y2 for the validated assays to support the toxicokinetic studies), and concentrations were calculated using GraphPad Prism or Watson LIMS (Thermo, Pennsylvania, USA) data reduction software.
Female mice were group housed (3-5 mice/cage) in polycarbonate cages containing appropriate bedding and water valves in a controlled environment (17.8-26.7° C.; 30-70% relative humidity; 12-hour light and dark cycles) and were offered standard rodent chow (PicoLab Rodent Diet 20) and tap water ad libitum. Mice were randomly assigned to treatment groups for all studies.
PK parameters were calculated in Phoenix® WinNonlin® (Certara USA Inc.) from the concentration-time data using a noncompartmental analysis method with intravenous (IV) bolus input. Nominal doses and sampling times were used. […] Area under the concentration time curve (AUC) was computed using the linear trapezoidal approximation method. Terminal half-life (t1/2) was estimated by log-linear regression of the terminal phase of the mean concentration versus time profiles. At least 3 points clearly visible in the terminal phase, an r^2 value of at least 0.8, and time interval of at least 3 half-lives (in the GLP toxicity studies only) were required to characterize half-life.

[2] = first-in-human dose selection (allometric scaling, PAD, safety factors); conditions: S91, MBT-2, EMT-6 models, with anti-PD-1
Method: In vivo pharmacology data was utilized to predict the human pharmacological active dose (PAD) and recommended the FIH dose. In addition, safety margins were determined between the predicted exposure at the recommended FIH dose and the exposure achieved at the NOAELs in toxicology studies.

[3] = tested on: Cloudman S91 tumors; assay: Cloudman S91 melanoma model; type: in vivo, DBA/2 mouse; conditions: dose range 3, 10 and 30 mg/kg
Method: Clone M3 [Cloudman S91 melanoma] (ATCC® CCL-53.1™) cells were obtained from the American Type Culture Collection (ATCC), and were maintained at CR Discovery Services as exponentially growing suspension cultures in Kaighn's modified Ham's F12 Medium supplemented with 2.5% fetal bovine serum, 15% horse serum, 2 mM glutamine, 100 units/mL penicillin G sodium, 100 μg/mL streptomycin sulfate and 25 μg/mL gentamicin. The tumor cells were grown in tissue culture flasks in a humidified incubator at 37° C., in an atmosphere of 5% CO2 and 95% air.
When tumors reached a volume of 125-175 mm^3 mice were randomized into groups of 12 with identical mean tumor volumes and dosing began.
Group 1 received anti-PD-1 antibody only. […] An untreated control was used, data not shown.
Percent tumor growth delay (% TGD) is defined as the increase in the median time to endpoint in a treatment group compared to the untreated control, expressed as a percentage of the median time to endpoint (TTE) of the control: • T=median TTE for treatment • C=median TTE for control
Results are summarized below (see FIGS. 9, 11 & 12).
(§1) All antibodies were dosed intraperitoneally.

[4] = tested on: EMT6 tumors; assay: EMT-6 syngeneic breast carcinoma model; type: in vivo, BALB/c mouse; conditions: dose 10 mg/kg
Method: EMT6 tumors were implanted subcutaneously. Treatment began when EMT6 tumors reached 30-80 mm^3. Anti-PD-1 was dosed at 10 mkg twice weekly. […] Anti-TGFβ3 neutralizing antibody was dosed at 30 mkg once weekly.
Responders are defined as those achieving tumor size of <25% of the endpoint volume at study end.
as §1

[5] = tested on: intratumoral immune cells in MBT2 tumors; assay: MBT2 tumor immune contexture (flow cytometry, IHC, qPCR); type: in vivo, mouse; conditions: MBT-2
Description: To study the immune effects of anti-PD-1 or Ab6-mIgG1 treatment as single agents or in combination, MBT-2 tumors were harvested from mice 10 days after treatment initiation and then subjected to immunohistochemical and flow cytometry analyses of select immune cell markers. […] The relevance of this increase in Treg cells is unclear given the significant anti-tumor effects observed with combination treatment. […] This appears to be due to selective reduction in CD11 b+CD206+ and CD11 b+Gr1+ subpopulations, which correspond to immunosuppressive M2-like macrophages and myeloid-derived suppressor cells (MDSC), respectively. Collectively, the representation of these two populations of cells is reduced from an average of 47% of the CD45+ cell population to 14% after combination treatment (FIG. 28B).
Each study group contained 12 mice with MBT2 tumors as described herein. […]
Flow cytometric analysis: Tumor-associated immune cell subsets were also analyzed by tumor flow cytometry in MBT-2 tumors. […] Flow cytometry was performed on a Attune NxT (ThermoFisher) and analyzed with FlowJo (BD Bioscience).
For immunohistochemical analysis, tumors from six animals were cut in halves and fixed. […] FIG. 30E provides the quantitation of the IHC data, shown as % of CD8-positive cells of total nuclei. […]

[6] = tested on: MBT2 tumors; assay: MBT2 syngeneic bladder cancer model, efficacy; type: in vivo, C3H/HeN mouse
Method: Group 1 received anti-PD-1 antibody only. […] An untreated control was used, not shown.
as §1

[7] = molecular target: T1, proTGFβ1 / latent TGFβ1 (Homo sapiens, UniProt P01137, C33S); assay: HDX-MS epitope mapping; conditions: Fab binding
T1 construct: The small latent TGFβ complexes were expressed with an N-terminal His-tag; His-tag (N); made in house; host or cells: Expi293F cells
Description: To gain initial insights into the inhibitory mechanism of action for the isoform-selective inhibitors of TGFβ1 activation, we performed Hydrogen-Deuterium Exchange Mass Spectrometry (H/DX-MS) analysis to identify possible sites of latent TGFβ1 interaction with the antibody. Hydrogen/Deuterium exchange mass spectrometry (HDX-MS) is a widely used technique for exploring protein conformation in solution. HDX-MS methodology is described in Wei et al., Drug Discov Today. 2014 January; 19(1): 95-102, incorporated by reference in its entirety herein. Briefly, HDX-MS relies on the exchange of the protein backbone amide hydrogens with deuterium in solution. […]
Accurate mass and collision-induced dissociation in data-independent acquisition mode (MSE) and ProteinLynx Global Server (PLGS) 3.0 software (Waters Corp., Milford, Mass.) were used to determine the peptic peptides in the undeuterated protein samples analyzed on the same UPLC-ESI-QToF system used for H/DX-MS experiments. […] The relative deuterium incorporation of each peptide was determined by subtracting the weight-averaged centroid mass of the isotopic distribution of undeuterated control sample from that of the weight-averaged centroid mass of the isotopic distribution of deuterium-labeled samples at each labeling time point. […]

[8] = molecular target: T2, human LTBP3-ProTGFb1 (Homo sapiens, UniProt P01137); assay: SPR (Biacore 8K) Fab binding kinetics; conditions: Fab 0.62-10 nM, 1:1 binding model
T2 construct: made in house; host or cells: Expi293F cells, co-transfected with pTT5 plasmids
Method: (§2) Briefly, the binding kinetics were evaluated by surface plasmon resonance using Biacore 8K (GE Healthcare). A Biotin CAP sensor chip was used to capture the biotinylated antigens. Fabs at various concentrations (0 nM, 0.62 nM, 1.25 nM, 2.5 nM, 5 nM and 10 nM) were injected over the captured antigens. Multi-cycle kinetics was employed where each analyte concentration was injected in a separate cycle and the sensor chip surface was regenerated after each cycle. All the assays were carried out in freshly prepared 1×HBS-EP+ buffer (10 mM HEPES, 150 mM NaCl, 3 mM EDTA, 0.05% Tween20, pH 7.4). Data for all the analyte concentrations for each interaction were fit globally to a 1:1 binding model to obtain the kinetic parameters. The Sensorgram for 0 nM analyte concentration was used as reference.
(§3) Binding kinetics was evaluated by surface plasmon resonance using a Biacore 8K (GE) instrument. Biotinylated antigens were captured on a Biotin CAP chip and the Fab fragments of the antibodies were used as analytes. Sensorgrams for Fab binding at variable concentrations (0.6-10 nM) were globally fit to obtain the kinetic parameters. Binding kinetics for the Fabs were evaluated against each of the four human antigens, LTBP1-ProTGFb1, LTBP3-ProTGFb1, GARP-ProTGFb1, and LRRC33-ProTGFb1.

[9] = molecular target: T3, human LRRC33-ProTGFb1 (Homo sapiens, UniProt P01137); assay: SPR (Biacore 8K) Fab binding kinetics; conditions: Fab 0.62-10 nM, 1:1 binding model
T3 construct: made in house
Method: as §2, §3

[10] = molecular target: T4, human GARP-ProTGFb1 (Homo sapiens, UniProt P01137); assay: SPR (Biacore 8K) Fab binding kinetics; conditions: Fab 0.62-10 nM, 1:1 binding model
T4 construct: made in house
Method: as §2, §3

[11] = molecular target: T5, human LTBP1-ProTGFb1 (Homo sapiens, UniProt P01137); assay: SPR (Biacore 8K) Fab binding kinetics; conditions: Fab 0.62-10 nM, 1:1 binding model
T5 construct: made in house; host or cells: Expi293F cells, co-transfected with pTT5 plasmids
Method: as §2, §3

T5 sequence (P01137 30-390): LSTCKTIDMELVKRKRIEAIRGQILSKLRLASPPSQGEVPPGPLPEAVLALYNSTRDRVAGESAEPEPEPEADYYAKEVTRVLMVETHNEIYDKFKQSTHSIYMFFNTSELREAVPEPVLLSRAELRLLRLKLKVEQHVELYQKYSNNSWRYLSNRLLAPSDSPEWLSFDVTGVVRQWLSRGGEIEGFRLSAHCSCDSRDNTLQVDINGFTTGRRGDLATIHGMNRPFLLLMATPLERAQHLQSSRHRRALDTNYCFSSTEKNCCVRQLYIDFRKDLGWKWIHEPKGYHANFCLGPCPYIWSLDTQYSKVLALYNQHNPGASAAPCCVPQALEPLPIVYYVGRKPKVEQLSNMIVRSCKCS
T5 sequence (Q14766 873-1507 partner): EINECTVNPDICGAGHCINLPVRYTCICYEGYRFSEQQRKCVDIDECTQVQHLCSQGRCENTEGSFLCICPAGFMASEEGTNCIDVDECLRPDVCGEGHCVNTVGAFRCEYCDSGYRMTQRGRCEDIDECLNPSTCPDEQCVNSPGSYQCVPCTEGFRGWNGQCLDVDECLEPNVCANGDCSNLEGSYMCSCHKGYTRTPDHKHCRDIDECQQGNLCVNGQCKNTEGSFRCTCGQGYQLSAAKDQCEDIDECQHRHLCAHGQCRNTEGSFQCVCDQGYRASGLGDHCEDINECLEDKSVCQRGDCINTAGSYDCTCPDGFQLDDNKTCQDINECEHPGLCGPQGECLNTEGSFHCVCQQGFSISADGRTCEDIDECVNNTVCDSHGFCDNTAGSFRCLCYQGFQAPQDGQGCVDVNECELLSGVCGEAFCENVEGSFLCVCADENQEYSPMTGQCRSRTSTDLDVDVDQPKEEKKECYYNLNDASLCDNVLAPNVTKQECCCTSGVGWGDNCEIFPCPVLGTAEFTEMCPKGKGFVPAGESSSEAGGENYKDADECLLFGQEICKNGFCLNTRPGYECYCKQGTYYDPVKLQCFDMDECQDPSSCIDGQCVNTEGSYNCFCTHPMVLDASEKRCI
T2 sequence (P01137 30-390): as the sequence (P01137 30-390) above
T2 sequence (Q9NS15 866-1039 partner limits assumed): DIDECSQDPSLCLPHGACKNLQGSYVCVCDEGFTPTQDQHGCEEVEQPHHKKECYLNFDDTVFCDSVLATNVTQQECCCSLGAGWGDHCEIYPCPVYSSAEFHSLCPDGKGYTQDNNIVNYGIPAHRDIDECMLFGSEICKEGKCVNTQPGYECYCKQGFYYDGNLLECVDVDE
T4 sequence (P01137 30-390): as the sequence (P01137 30-390) above
T4 sequence (Q14392 20-627 partner limits assumed): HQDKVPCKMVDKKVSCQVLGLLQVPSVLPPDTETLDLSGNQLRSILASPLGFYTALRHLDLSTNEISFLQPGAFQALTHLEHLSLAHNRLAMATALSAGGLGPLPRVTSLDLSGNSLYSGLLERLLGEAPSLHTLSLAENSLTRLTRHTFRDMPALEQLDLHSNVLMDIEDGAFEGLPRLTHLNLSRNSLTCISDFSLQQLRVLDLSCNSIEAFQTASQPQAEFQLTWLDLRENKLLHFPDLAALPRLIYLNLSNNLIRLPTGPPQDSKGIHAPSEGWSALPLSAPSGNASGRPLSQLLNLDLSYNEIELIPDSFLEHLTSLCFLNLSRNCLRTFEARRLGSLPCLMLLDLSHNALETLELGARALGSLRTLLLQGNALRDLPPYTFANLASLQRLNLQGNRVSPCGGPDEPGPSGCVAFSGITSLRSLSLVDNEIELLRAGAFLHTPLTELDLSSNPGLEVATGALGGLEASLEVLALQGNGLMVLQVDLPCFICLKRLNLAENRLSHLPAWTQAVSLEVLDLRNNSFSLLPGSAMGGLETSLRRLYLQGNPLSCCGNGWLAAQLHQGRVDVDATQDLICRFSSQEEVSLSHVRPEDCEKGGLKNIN
T3 sequence (P01137 30-390): as the sequence (P01137 30-390) above
T3 sequence (Q86YC3 19-650 partner limits assumed): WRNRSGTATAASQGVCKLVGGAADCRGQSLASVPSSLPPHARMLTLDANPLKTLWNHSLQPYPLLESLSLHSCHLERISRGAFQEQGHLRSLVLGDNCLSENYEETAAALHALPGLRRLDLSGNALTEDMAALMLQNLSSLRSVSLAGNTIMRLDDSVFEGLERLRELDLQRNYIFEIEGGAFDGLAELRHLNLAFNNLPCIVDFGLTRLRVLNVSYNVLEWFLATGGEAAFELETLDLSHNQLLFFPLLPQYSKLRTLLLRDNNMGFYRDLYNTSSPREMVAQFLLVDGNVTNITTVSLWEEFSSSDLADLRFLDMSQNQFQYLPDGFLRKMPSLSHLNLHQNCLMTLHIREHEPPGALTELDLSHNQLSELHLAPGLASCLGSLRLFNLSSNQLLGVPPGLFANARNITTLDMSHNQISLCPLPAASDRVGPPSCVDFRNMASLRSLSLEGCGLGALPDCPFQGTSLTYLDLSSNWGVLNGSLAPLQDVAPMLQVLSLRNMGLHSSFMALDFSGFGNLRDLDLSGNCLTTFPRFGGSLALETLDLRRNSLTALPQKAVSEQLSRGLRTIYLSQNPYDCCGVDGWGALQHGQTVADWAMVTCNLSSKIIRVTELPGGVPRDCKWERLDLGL
T1 sequence (P01137 with tags, fused parts or gaps C33S): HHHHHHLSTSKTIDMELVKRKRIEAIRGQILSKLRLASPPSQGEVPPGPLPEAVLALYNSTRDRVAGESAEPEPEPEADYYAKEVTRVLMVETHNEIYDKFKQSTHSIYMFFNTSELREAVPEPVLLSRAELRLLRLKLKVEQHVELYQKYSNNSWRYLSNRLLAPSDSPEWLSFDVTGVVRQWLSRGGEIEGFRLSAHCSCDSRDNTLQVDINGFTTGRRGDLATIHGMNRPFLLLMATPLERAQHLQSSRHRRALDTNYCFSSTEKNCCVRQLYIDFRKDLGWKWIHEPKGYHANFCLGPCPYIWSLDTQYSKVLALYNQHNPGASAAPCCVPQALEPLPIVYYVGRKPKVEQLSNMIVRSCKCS

B1: Ab6-mIgG1: chimeric antibody with the human V domains of Ab6 fused to mouse IgG1/kappa constant domains (protein)
heavy chain: EVQLVESGGGLVQPGGSLRLSCTASGFTFSSFSMDWVRQAPGKGLEWVSYISPSADTIYYADSVKGRFTISRDNAKNTLYLQMNSLRAEDTAVYYCARGVLDYGDMLMPWGQGTLVTVSS
light chain: DIQMTQSPSSLSASVGDRVTITCQASQDITNYLNWYQQKPGKAPKLLIYDASNLETGVPSRFSGSGSGTDFTFTISSLQPEDIATYYCQQADNHPPWTFGGGTKVEIK
[1]
  Cmax (mean, range over dose groups): 7400 to 664000 ng/mL
[1]; 3 mg/kg
  AUC0-inf: 4890 µg·h/mL
  AUClast: 4710 µg·h/mL
[1]; 10 mg/kg
  AUC0-inf: 17800 µg·h/mL
  AUClast: 17400 µg·h/mL
[1]; 30 mg/kg
  AUC0-inf: 64200 µg·h/mL
  AUClast: 64100 µg·h/mL
[2]
  pharmacologically active dose (range): 3-10 mg/kg
[3]
  PAD: 3 mg/kg
[4]
  PAD: 10 mg/kg
[5]
  pSmad3 staining in tumor vascular endothelium: much diminished
[6]; MBT2, 3 mg/kg per week + anti-PD-1
  tumor-free survivors: 21%
[6]; MBT2, 10 mg/kg per week + anti-PD-1
  tumor-free survivors: 36%
[6]; MBT-2, dose range 3 and 10 mg/kg
  PAD: 10 mg/kg

B2: Ab6 Fab: Fab fragment of Ab6 used as analyte in SPR and in HDX-MS (antibody, V domains shown)
VH: B1 heavy chain
VL: B1 light chain
[7]
  regions on proTGFβ1 strongly protected from deuterium exchange: three binding regions
[8]
  koff: 0.000831 s⁻¹
  kon: 1.7e+06 M⁻¹ s⁻¹
[9]
  koff: 0.000123 s⁻¹
  kon: 845000 M⁻¹ s⁻¹
[10]
  koff: 0.000218 s⁻¹
  kon: 2.1e+06 M⁻¹ s⁻¹
[11]
  koff: 0.000255 s⁻¹
  kon: 2.05e+06 M⁻¹ s⁻¹
